The target in the assay is integrin αIIb_W968C (human). The assay is described as follows: cross-linking; disulfide between engineered cysteines in cells; S35-labelled CHO cells lysed, immunoprecipitated with anti-αIIb mAb 10E5 and protein G-Sepharose, SDS-PAGE with or without 2 mM DTT, radioautography.

This passage reports efficiency of disulfide formation results from publication PMC4305291.

With “integrin β3_I693C (from UniProt P05106 27-788) (natural protein)”, the efficiency of disulfide formation is 100%.
